Test results as given in patent publication US20170192009A1.

Legend:
[1] = target: GFP-hIL6 fusion protein (N-terminal 6x His-tag, mGFP, gs linker, human interleukin-6), purified (human); test: flow cytometry of permeabilized E. coli IT cells displaying the binder-mRFP-CBD on inclusion bodies, treated with GFP-IL6; GFP channel
[2] = target: GFP-hIL6 fusion protein (N-terminal 6x His-tag, mGFP, gs linker, human interleukin-6), purified (human); test: flow cytometry of permeabilized IT cells treated with GFP-IL6
sfGFP = test: flow cytometry of permeabilized IT cells, treated with sfGFP; GFP channel [panel sfGFP]
[3] = target: GFP-hIL6 fusion protein (N-terminal 6x His-tag, mGFP, gs linker, human interleukin-6), purified (human); test: flow cytometry of permeabilized IT cells, treated with mGFP-IL6; GFP channel [panel IL-6]

GFP fluorescence value [1]	GFP fluorescence [2]	Substance	GFP fluorescence value (sfGFP)	GFP fluorescence value [3]
17	10	InVLR5c-mRFP-CBD fusion protein (In-VLR5c repebody fused to mRFP and family II CBD, displayed on inclusion bodies in permeabilized E. coli IT cells) (designed binder)		
		negative control (f)	15.2	26.2
